Test results as given in patent publication US12545900B2, “CGAS/DNCV-like nucleotidyltransferases and uses thereof” (Dana-Farber Cancer Institute, Inc., priority 2018, dated 2026).
“Also recorded” adds a separate entry of the source.

Columns and labels:
RECON = target: T1, RECON (Mus musculus, UniProt Q8VC28); experiment: Gel shift assay, radiolabeled nucleotide binding to RECON (native PAGE); details: radiolabeled nucleotide, 0, 4, 20, 100 μM protein
T1 construct: 6xHis-SUMO2 (N, cleaved yes); made in house; host or cells: E. coli BL21 CodonPlus (DE3)-RIL
T1 sequence (Q8VC28 1-323): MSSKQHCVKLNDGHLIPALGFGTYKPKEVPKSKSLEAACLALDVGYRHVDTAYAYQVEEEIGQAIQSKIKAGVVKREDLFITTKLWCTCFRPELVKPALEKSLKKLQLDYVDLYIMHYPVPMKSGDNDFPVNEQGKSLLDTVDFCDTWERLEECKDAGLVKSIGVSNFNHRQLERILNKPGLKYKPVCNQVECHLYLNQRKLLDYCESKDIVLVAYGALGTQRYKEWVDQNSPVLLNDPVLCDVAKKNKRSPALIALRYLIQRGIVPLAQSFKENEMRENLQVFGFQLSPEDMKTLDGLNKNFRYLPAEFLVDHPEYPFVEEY
Protocol: (§1) Briefly, recombinant Mus musculus STING or RECON, at 4, 20, or 100 μM was incubated with radiolabeled nucleotide (≤1 μM final concentration) in gel shift buffer for final conditions of 50 mM Tris pH 7.5, 60 mM KCl, 5 mM Mg (OAc) 2, and 1 mM DTT. Experiments were prepared by combining 1 μL of [α-^32P] labeled nucleotide, 2 uL 5x gel shift buffer, 5 μL of nuclease free water, and started by addition of 2 μL of recombinant protein in storage buffer.
(§2) After 30 min of equilibration, bound and free nucleotide were separated by 6% native PAGE in 0.5x TBE buffer. Gels were dried, and exposed to phosphorscreen prior to detection by Typhoon Trio Variable Mode Imager system (GE Healthcare). Gel shifts were quantified with ImageQuant® 5.2 and the % bound nucleotide was calculated as a proportion of total bound and free nucleotide for each lane, after subtraction of background signal. Gel shift data is representative of ≥2 independent experiments.

CapE = target: T2, CapE (Escherichia coli, UniProt Q6XGD4); experiment: Phospholipase assay (EnzChek Phospholipase A1), CapE; assay type: biochemical, E. coli; details: 0.1, 1, and 10-fold molar ratios of nucleotide to phospholipase
T2 construct: made in house; host or cells: E. coli BL21 CodonPlus (DE3)-RIL
Protocol: Patatin-like lipases were assayed as previously described (Gaspar & Machner (2014) Proc. Natl. Acad. Sci. U.S.A. 111:4560-4565). Briefly, CapV and CapE were produced recombinantly and catalytic activity was measured using the EnzChek® Phospholipase A1 Assay Kit (Invitrogen) according to the manufacturer's instructions. […] Assays were monitored fluorometrically Ex=460 nm/Em=515 nm, for 60 min at ˜90 s intervals at room temperature using a Biotek Synergy plate reader. Slope of each reaction in the linear range was used to calculate activity (Linear regression/straight line analysis, Prism 7.0c). A PLA1 standard curve from 20-0.02 U was used to interpolate phospholipase activity. Emission was monitored at a gain of 100 and/or 50 in order to extend the linear range of the assay.

Mus musculus STING = target: T3, Mus musculus STING (Mus musculus, UniProt Q3TBT3); experiment: Gel shift assay, radiolabeled nucleotide binding to STING (native PAGE); details: radiolabeled nucleotide, 0, 4, 20, 100 μM protein
T3 construct: 6xHis-SUMO2 (N, cleaved yes); made in house; host or cells: E. coli BL21 CodonPlus (DE3)-RIL
T3 sequence (Q3TBT3 138-378 limits assumed): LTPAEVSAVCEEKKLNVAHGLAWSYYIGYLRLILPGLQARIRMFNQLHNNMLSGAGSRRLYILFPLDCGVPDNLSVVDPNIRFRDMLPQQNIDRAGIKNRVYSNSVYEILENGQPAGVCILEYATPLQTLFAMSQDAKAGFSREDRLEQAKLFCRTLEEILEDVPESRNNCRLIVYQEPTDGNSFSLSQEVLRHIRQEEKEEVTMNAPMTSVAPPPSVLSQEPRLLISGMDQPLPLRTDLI
Protocol: as §1, §2

[1] = Second messenger synthesis assay ([α-32P] NTPs, TLC, MS/NMR of products); assay type: biochemical; details: for nucleotide product synthesized by the enzyme: purified enzyme with [α-32P] NTPs, TLC, products confirmed by MS/NMR
Protocol: Recombinant, candidate nucleotidyltransferase reactions combined 4 μL of 5× reaction buffer (250 mM CAPSO pH 9.4, […], 25 mM Mg (OAc) 2, 5 mM DTT), 2 μL of 10× NTPs, 1 uL [α-^32P] NTPs (˜1 uCi), 1 μL of candidate enzyme in storage buffer (˜20 μM), and a remaining volume of nuclease free water. The final reactions (50 mM CAPSO pH 9.4, 50 mM KCl, 5 mM Mg (OAc) 2, 1 mM DTT, ≤5% glycerol, 25-250 μM individual NTPs, trace amounts of [(-^32P] NTP, 1 μM enzyme) were started with addition of enzyme. Where indicated, pH was altered by replacing CAPSO buffer with appropriate buffer from “StockOptions pH Buffer Kit” (Hampton Research). When appropriate, Mg^2+ was replaced with an equimolar concentration of Mn^2+(MnCl2). cGAS reactions were always carried out with Tris at pH 7.5 and supplemented with 1 μM ISD45 dsDNA (Stetson & Medzhitov. (2006) Immunity 24:93-103). Reactions were carried out with 25 μM of each indicated NTP for FIGS. 1B, 3D, 8B, 8C, and 8D and for FIGS. 2C, 2G-2I, 5B, 5C, 10A-10D, 11A, 11B, and 13D. Reactions in all other figures were carried out with 250 μM NTP. The NTP/[α-^32P] NTPs in FIG. 1B are cGAS (ATP, GTP/[α-^32P] GTP), DncV (ATP, GTP/[α-^32P] ATP), DisA (ATP/[α-^32P] ATP), WspR (GTP/[xx-^32P] GTP), and CdnE (NTP/[{-^32P] NTP). P1 nuclease treated reactions in FIG. 1C and FIG. 11B are cGAS (ATP, GTP/[α-^32P] ATP), DncV (ATP, GTP/[α-^32P] GTP), CdnE (ATP, UTP/[<- ^32P] ATP), and Lp-CdnE02 (CTP, UTP/ [α-^32P] UTP) . Where indicated, nonhydrolyzable nucleotides [Ap (c) pp, Gp (c) pp, Cp (c) pp, or Up (n) pp (Jena)] were used at 25 μM.
Reactions were incubated for 2 h at 37° C. prior to analysis unless otherwise stated. Reactions were stopped by addition of 5 U of alkaline phosphatase (New England Biolabs) which removed triphosphates on remaining NTPs and converted the remaining nucleotide [α-^32P] to ^32Pi and allowed visualization of cyclic nucleotides. After a >20 min incubation, […] (PEI-cellulose) or 1 uL (silica) of the reaction was spotted 1.5 cm from the bottom of the TLC plate, spaced 0.8 cm apart. 20 cm×20 cm F-coated PEI-cellulose TLCs (Millipore) were developed in 1.5 M KH2PO4 (pH 3.8) until the buffer front reacted ˜1 cm from the top; 20 cm×10 cm F-coated silica HP-TLC plates (Millipore) were developed in 11:7:2 1-propanol: NH4OH: H2O in a chemical fume hood for 1 hour. Plates were dried and exposed to phosphorscreen prior to detection by Typhoon™ Trio Variable Mode Imager system (GE Healthcare). All TLC data are representative of ≥3 independent experiments, with the exception of the biochemical screen which represents ≥2 independent experiments.
Cyclic nucleotides were produced in large scale using previously described methods (Sureka et al. (2014) Cell 158:1389-1401) with the following changes. Small-scale second messenger synthesis assays were scaled up to […] reactions with final conditions of 50 mM CAPSO pH 9.4, 12.5-50 mM KCl, 5-20 mM Mg (OAc) 2, 1 mM DTT, ≤5% glycerol, 250 μM individual NTPs, and 1 μM enzyme. A 20 μL aliquot of the larger reaction was removed and [cx-^32P] NTP were added to follow reaction progress. Reactions were incubated for 24 hours at which time 5 U of CIP/mL of reaction was added and the reaction was further incubated for 2-24 hours. Reactions were heat inactivated at 65° C. for 30 min, diluted to a final salt concentration of 12.5 mM, and purified by anion exchange chromatography and FPLC (either 1 mL Q-Sepharose® column, or Mono Q 4.6/100 PE, GE Healthcare). The column was washed with water and 1 mL fractions were collected during a gradient elution with 2M ammonium acetate. Fractions harboring the appropriate product were identified by A260 and silica TLC, visualizing the nucleotide products by UV-shadowing, imaging using a handheld camera, and comparing migration to paired, radiolabeled reactions. Selected fractions were concentrated by evaporation and re-suspended in 30 μL of nuclease free water for MS. […]

T2 sequence (Q6XGD4 whole entry): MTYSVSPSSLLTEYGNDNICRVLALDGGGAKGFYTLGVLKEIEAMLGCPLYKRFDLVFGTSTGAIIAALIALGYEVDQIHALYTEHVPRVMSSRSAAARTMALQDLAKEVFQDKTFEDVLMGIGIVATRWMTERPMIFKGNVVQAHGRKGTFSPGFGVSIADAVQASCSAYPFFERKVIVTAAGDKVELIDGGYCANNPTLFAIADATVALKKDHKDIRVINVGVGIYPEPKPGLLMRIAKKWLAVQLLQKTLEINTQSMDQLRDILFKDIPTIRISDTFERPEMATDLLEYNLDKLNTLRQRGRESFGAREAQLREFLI

Nc1nc2c(ncn2[C@@H]2O[C@@H]3COP(=O)(O)O[C@H]4[C@@H](O)[C@H](n5cnc6c(N)ncnc65)O[C@@H]4COP(=O)(O)O[C@H]3[C@H]2O)c(=O)[nH]1 [3′3′ cGAMP, 3′-5′/3′-5′ cGAMP, reference compound]
recognition/binding of nucleotide by RECON (RECON): detected by both STING and RECON
activation of CapE phospholipase activity (CapE): exquisite specificity of CapE insulates this circuit from 3′3′ cGAMP

Nc1ncnc2c1ncn2[C@@H]1O[C@@H]2COP(=O)(O)O[C@H]3[C@@H](O)[C@H](n4cnc5c(N)ncnc54)O[C@@H]3COP(=O)(O)O[C@H]2[C@H]1O [c-di-AMP, cyclic di-AMP, reference compound]
recognition/binding of nucleotide by RECON (RECON): detected by both STING and RECON

Nc1nc2c(ncn2[C@@H]2O[C@@H]3COP(=O)(O)O[C@H]4[C@@H](O)[C@H](n5cnc6c(=O)[nH]c(N)nc65)O[C@@H]4COP(=O)(O)O[C@H]3[C@H]2O)c(=O)[nH]1 [c-di-GMP, cyclic di-GMP, reference compound]
recognition/binding of nucleotide by STING (Mus musculus STING): detected by STING

B1: CdnE: E. coli cGAS/DncV-like nucleotidyltransferase, SEQ ID NO: 166 (protein, listed as Escherichia coli)
chain: MGIPESQLDTWSHQGSIAQSASTYSIIKNALESANTKYHGKNFKVFLQGSYGNDTNIYAESDVDVVICLDDVYYSDLTQLSPEDKDAYDRAFVPATYSYTQFKQDVLEALTERFGSDVKVGDKAIVVAANGSRRKADVIASMQFRRYWKFKGHYDSQYDEGICFFNGAGERIANYPKQHSENLTLKHQASNKWLKPMVRVLKNLRSKLIADGKLKSGLAPSYYLEGLLYNVPNEKFGTSYADCFVNAMNWIQTEADKDKLVCANEQYYLLWEGTHTSWEKADAEAFIDAAIKMWNEW
requirement of a cognate stimulus for enzyme activity [1]: constitutively active and does not require a cognate stimulus
nucleotide product synthesized by the enzyme [1]: cyclic UMP-AMP (cUMP-AMP)
nucleotide product synthesized by the enzyme ([1]; listed as wild-type CdnE): robustly synthesized cUMP-AMP

B2: Ec-CdnD02: CD-NTase from Enterobacter cloacae, SEQ ID NO: 112 (protein, listed as Enterobacter cloacae)
chain: MELQPQFNEFLANIRPTDTQKEDWKSGARTLRERLKNFEPLKEIVVSTFLQGSIRRSTAIRPLGDKRPDVDIVVVTNLDHTRMSPTDAMDLFIPFLEKYYPGKWETQGRSFGITLSYVELDLVITAIPESGAEKSHLEQLYKSESVLTVNSLEEQTDWRLNKSWTPNTGWLSESNSAQVEDAPASEWKAHPLVLPDREKNEWGRTHPLAQIRWTAEKNRLCNGHYINLVRAVKWWRQQNSEDLPKYPKGYPLEHLIGNALDNGTTSMAQGLVQLMDTFLSRWAAIYNQKSKPWLSDHGVAEHDVMARLTAEDFCSFYEGIASAAEIARNALASEEPQESAQLWRQLFGSKFPLPGPQGGDRNGGFTTPSKPAEPQKTGRFA
nucleotide product synthesized by the enzyme [1]: cyclic AMP-AMP-GMP (cAAG), a cyclic trinucleotide, is the major product

B3: Rm-CdnE: CdnE homolog from Rhodothermus marinus, SEQ ID NO: 198 (protein, listed as Rhodothermus marinus)
chain: MPVPESQLERWSHQGATTTAKKTHESIRAALDRYKWPKGKPEVYLQGSYKNSTNIRGDSDVDVVVQLNSVFMNNLTAEQKRRFGFVKSDYTWNDFYSDVERALTDYYGASKVRRGRKTLKVETTYLPADVVVCIQYRKYPPNRKSEDDYIEGMTFYVPSEDRWVVNYPKLHYENGAAKNQQTNEWYKPTIRMFKNARTYLIEQGAPQDLAPSYFLECLLYNVPDSKFGGTFKDTFCSVINWLKRADLSKFRCQNGQDDLFGEFPEQWSEEKARRFLRYMDDLWTGWGQ
nucleotide product synthesized by the enzyme [1]: synthesized cUMP-AMP

B4: Em-CdnE: CdnE from Elizabethkingia meningoseptica, SEQ ID NO: 201 (protein, listed as Elizabethkingia meningoseptica)
chain: MNFSEQQLINWSRPVSTTEDLKCQNAITQITAALRAKFGNRVTIFLQGSYRNNTNVRQNSDVDIVMRYDDAFYPDLQRLSESDKAIYNAQRTYSGYNFDELKADTEEALRNVFTTSVERKNKCIQVNGNSNRITADVIPCFVLKRFSTLQSVEAEGIKFYSDDNKEIISFPEQHYSNGTEKTNQTYRLYKRMVRILKVVNYRLIDDGEIADNLVSSFFIECLVYNVPNNQFISGNYTQTLRNVIVKIYEDMKNNADYTEVNRLFWLFSNRSPRTRQDALGFMQKCWNYLGYQ
nucleotide product synthesized by the enzyme [1]: robustly synthesized cyclic dipurines; also recorded: synthesis of c-di-AMP, cGAMP, and c-di-GMP
